From article PMC7984168, “Heat Shock Protein HSP24 Is Involved in the BABA-Induced Resistance to Fungal Pathogen in Postharvest Grapes Underlying an NPR1-Dependent Manner”

B1: PR5 promoter HSE probe (dsDNA)
DNA 1: GGAACTGATTCCCTAAAACAGAAAAGAATGTATGAACCTTCCTAAAATAC
DNA 2: GTATTTTAGGAAGGTTCATACATTCTTTTCTGTTTTAGGGAATCAGTTCC
B2: PR1 promoter HSE probe (dsDNA)
DNA 1: GGCCCGCATGAGTTACAACAAGAAGAAATTTCAAATATTGCTCTCCGTGG
DNA 2: CCACGGAGAGCAATATTTGAAATTTCTTCTTGTTGTAACTCATGCGGGCC
B3: PR2 promoter HSE probe (dsDNA)
DNA 1: CATCTCAATATCAATATTTAAGAACTTTCTAATAAAATCATCCTTATCCGG
DNA 2: CCGGATAAGGATGATTTTATTAGAAAGTTCTTAAATATTGATATTGAGATG

Biological target: VvHSP24 (class B HSP/HSF, AtHSFB1 ortholog) (Vitis vinifera, UniProt A0ACM8QKQ1 1-286)
Sequence (A0ACM8QKQ1 entry or part of it): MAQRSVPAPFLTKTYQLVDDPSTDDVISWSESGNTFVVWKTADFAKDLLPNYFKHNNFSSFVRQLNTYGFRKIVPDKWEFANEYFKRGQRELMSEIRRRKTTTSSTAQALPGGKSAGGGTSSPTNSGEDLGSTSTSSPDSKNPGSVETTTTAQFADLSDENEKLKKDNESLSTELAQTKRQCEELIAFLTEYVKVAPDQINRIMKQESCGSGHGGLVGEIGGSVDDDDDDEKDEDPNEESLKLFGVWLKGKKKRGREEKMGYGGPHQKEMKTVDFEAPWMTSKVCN
Assay: EMSA; LightShift chemiluminescent EMSA kit (Pierce); buffer, salt, pH and temperature not stated; 200-fold mutant competitor
Details: protein: recombinant; tags: His (pCzn1); label: 5' biotin

Binding result, no binding:
B1
B2
B3
